Test results reported in the RNAGym collection of RNA variant scans (doi:10.1093/molbev/msab373).

B1: Azoarcus group I ribozyme (parent)
chain: GUGCCUUGCGCCGGGAAACCACGCAAGGGAUGGUGUCAAAUUCGGCGAAACCUAAGCGCCCGCCCGGGCGUAUGGCAACGCCGAGCCAAGCUUCGGCGCCUGCGCCGAUGAAGGUGUAGAGACUAGACGGCACCCACCUAAGGCAAACGCUAUGGUGAAGGCAUAGUCCAGGGAGUGGCGAAAGUCACACAAACCGG

Variants of: B1
Test: reverse-splicing fitness (ratio to wild type); higher = more active; in vitro selection; Mg2+ level not given
Summary of the method: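 An in vitro group I ribozyme library with randomized positions was T7-transcribed and gel-purified. In triplicate, 10 pmol RNA in EPPS pH 7.5 was reacted with 50 pmoles of a 30-nt RNA substrate for 1 h at 37 °C across several added MgCl2 levels (1–48 mM), then stopped with EDTA. Products were reverse transcribed from a substrate-complementary primer, PCR-amplified and sequenced (HiSeq 4000). Fitness is a variant's read proportion after selection over that before, normalised to wild type.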

| Variant | reverse-splicing fitness |
| --- | --- |
| A111C A120C A145U C150G U176C | 0.034 |
| A111C A120C A145U C150G U176G | 0.00607 |
| A111C A120C A145U C150G U176A | 0.0202 |
| A111C A120C A145G C169G U176C | 0.0244 |
| A111C A120C A145G C169G U176G | 0.00588 |
| A111C A120C A145G C169G U176A | 0.0201 |
| A111C A120C A145G U176A | 0.19 |
| A111C A120C A145G U176G | 0.0393 |
| A111C A120C A145G U176C | 0.203 |
| A111C A120C A145C C150G U176G | 0.00444 |
| A111C A120C A145C C150G U176A | 0.0198 |
| A111C A120C A145C C150G U176C | 0.0391 |
| A111C A120C A145U C150A U176C | 0.0526 |
| A111C A120C A145U C150A U176G | 0.00986 |
| A111C A120C A145U C150A U176A | 0.0359 |
| A111C A120C A145C C169A | 0.00953 |
| A111C A120C A145C C169G | 0.0105 |
| A111C A120C A145C C169U | 0.17 |
| A111C A120C A145G C150U C169A | 0.0131 |
| A111C A120C A145G C150U C169G | 0.00981 |
| A111C A120C A145G C150U C169U | 0.147 |

| Variant | reverse-splicing fitness |
| --- | --- |
| A111C A120C A145G C150A U176A | 0.0428 |
| A111C A120C A145G C150A U176C | 0.0663 |
| A111C A120C A145G C150A U176G | 0.0143 |
| A111C A120C A145U C169A | 0.0119 |
| A111C A120C A145U C150G C169A U176A | 0.0107 |
| A111C A120C A145U C150G C169A U176C | 0.00906 |
| A111C A120C A145U C150G C169A U176G | 0.00619 |
| A111C A120C A145G C150U C169A U176A | 0.014 |
| A111C A120C A145G C150U C169A U176G | 0.00559 |
| A111C A120C A145G C150U C169A U176C | 0.0144 |
| A111C A120C A145G C169U U176A | 0.033 |
| A111C A120C A145G C169U U176C | 0.0425 |
| A111C A120C A145G C169U U176G | 0.00591 |
| A111C A120C A145C C150U C169G U176G | 0.00592 |
| A111C A120C A145C C150U C169G U176C | 0.0118 |
| A111C A120C A145C C150U C169G U176A | 0.0202 |
| A111C A120C A145U C150G C169U U176G | 0.00656 |
| A111C A120C A145U C150G C169U U176C | 0.0173 |
| A111C A120C A145U C150G C169U U176A | 0.00997 |
| A111C A120C A145G C150G C169A U176C | 0.0116 |
| A111C A120C A145G C150G C169A U176A | 0.0133 |

| Variant | reverse-splicing fitness |
| --- | --- |
| A111C A120C A145G C150G C169A U176G | 0.00793 |
| A111C A120C A145G C150U | 0.462 |
| A111C A120C A145G C150G | 0.0633 |
| A111C A120C A145G C150A | 0.0979 |
| A111C A120C A145C C169U U176G | 0.006 |
| A111C A120C A145C C169U U176A | 0.0332 |
| A111C A120C A145C C169U U176C | 0.0413 |
| A111C A120C A145G C150U C169G U176C | 0.0158 |
| A111C A120C A145G C150U C169G U176A | 0.0118 |
| A111C A120C A145G C150U C169G U176G | 0.00574 |
| A111C A120C A145G C150A C169A | 0.0101 |
| A111C A120C A145G C150A C169U | 0.0324 |
| A111C A120C A145G C150A C169G | 0.00782 |
| A111C A120C A145U C150U C169U U176C | 0.0374 |
| A111C A120C A145U C150U C169U U176G | 0.00661 |
| A111C A120C A145U C150U C169U U176A | 0.028 |
| A111C A120C A145C C150G | 0.0702 |
| A111C A120C A145C C150U | 0.175 |
| A111C A120C A145U C150U C169A U176A | 0.012 |
| A111C A120C A145U C150U C169A U176C | 0.00838 |
| A111C A120C A145U C150U C169A U176G | 0.00715 |

| Variant | reverse-splicing fitness |
| --- | --- |
| A111C A120C A145U C150U U176A | 0.146 |
| A111C A120C A145U C150U U176G | 0.0336 |
| A111C A120C A145U C150U U176C | 0.174 |
| A111C A120C A145U C150A C169U U176C | 0.0144 |
| A111C A120C A145U C150A C169U U176A | 0.0195 |
| A111C A120C A145U C150A C169U U176G | 0.00632 |
| A111C A120C A145C C150G C169U U176G | 0.0054 |
| A111C A120C A145C C150G C169U U176C | 0.0163 |
| A111C A120C A145C C150G C169U U176A | 0.00995 |
| A111C A120C A145C C150A U176A | 0.0203 |
| A111C A120C A145C C150A U176G | 0.0084 |
| A111C A120C A145C C150A U176C | 0.0293 |
| A111C A120C A145U C150A C169A | 0.00839 |
| A111C A120C A145U C150A C169U | 0.024 |
| A111C A120C A145U C150A C169G | 0.00628 |
| A111C A120C A145G C169A | 0.0109 |
| A111C A120C A145G C169G | 0.0102 |
| A111C A120C A145G C169U | 0.184 |
| A111C A120C A145G C150A C169A U176A | 0.0145 |
| A111C A120C A145G C150A C169A U176G | 0.00677 |
